Results from patent publication US20170037124A1.

Key:
Experiment in all cases: SPR, blank anti-hFc surface, 500 nM peptide, 25C
[1] = molecular target: peptide from the N-terminal coiled-coil region of human ANGPTL3 (hANGPTL3 peptide, SEQ ID NO: 338) (human)
[2] = molecular target: human ANGPTL8 peptide (hANGPTL8 peptide, SEQ ID NO: 337) (human)
[3] = molecular target: peptide from the N-terminal coiled-coil region of human ANGPTL4 (hANGPTL4 peptide, SEQ ID NO: 339) (human)
Chain of peptide from the N-terminal coiled-coil region of human ANGPTL4 (hANGPTL4 peptide, SEQ ID NO: 339) (human) (peptide, as listed by the source): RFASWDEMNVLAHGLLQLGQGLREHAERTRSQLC

Chain of peptide from the N-terminal coiled-coil region of human ANGPTL3 (hANGPTL3 peptide, SEQ ID NO: 338) (human) (peptide, as listed by the source): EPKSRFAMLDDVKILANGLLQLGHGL
Chain of human ANGPTL8 peptide (hANGPTL8 peptide, SEQ ID NO: 337) (human) (peptide, as listed by the source): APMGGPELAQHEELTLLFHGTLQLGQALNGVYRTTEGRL

monoclonal mouse anti-human Fc antibody (GE, # BR-1008-39)
500 nM hANGPTL3 peptide Bound (RU) [1]: 0 RU | 500 nM hANGPTL8 peptide Bound (RU) [2]: 3 RU | 500 nM hAngPTL4 peptide Bound (RU) [3]: 0 RU
